According to paper PMC9795039, “Kindlin2 enables EphB/ephrinB bi-directional signaling to support vascular development” (Life Science Alliance, 2022):
Numbering of substitutions follows the chain as printed. Numbers in names are those of the source.

T1: his-tagged human full-length kindlin2 (human, UniProt Q96AC1 1-680)
T1 construct: human full-length kindlin2 in gWIZ vector; also called purified kindlin2; recombinant kindlin2; source: Expi293F cells, purified
T1 sequence (looked up): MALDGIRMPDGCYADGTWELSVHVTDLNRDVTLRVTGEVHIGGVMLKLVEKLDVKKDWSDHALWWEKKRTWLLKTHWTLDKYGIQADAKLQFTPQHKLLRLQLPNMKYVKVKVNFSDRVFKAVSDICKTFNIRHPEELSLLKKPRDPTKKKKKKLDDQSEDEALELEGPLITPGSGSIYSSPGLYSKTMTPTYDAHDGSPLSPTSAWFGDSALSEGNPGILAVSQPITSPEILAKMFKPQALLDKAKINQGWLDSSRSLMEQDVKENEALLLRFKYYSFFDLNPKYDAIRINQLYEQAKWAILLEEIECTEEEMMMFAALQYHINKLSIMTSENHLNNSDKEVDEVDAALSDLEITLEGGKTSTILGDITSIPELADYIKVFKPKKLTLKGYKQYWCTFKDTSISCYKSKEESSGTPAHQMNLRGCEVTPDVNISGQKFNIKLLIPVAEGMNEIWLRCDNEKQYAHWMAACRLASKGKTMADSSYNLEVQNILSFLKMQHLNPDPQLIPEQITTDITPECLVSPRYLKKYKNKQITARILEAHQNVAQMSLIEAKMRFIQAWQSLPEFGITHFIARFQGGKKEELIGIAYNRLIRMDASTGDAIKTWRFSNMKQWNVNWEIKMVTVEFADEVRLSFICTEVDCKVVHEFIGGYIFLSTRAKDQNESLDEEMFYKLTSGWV

B1: his/Avi-tagged cytoplasmic tail of ephrinB2 WT (domain or fragment, UniProt P52799 251-333, looked up)
chain: KYRRRHRKHSPQHTTTLSLSTLATPKRSGNNNGSEPSDIIIPLRTADSVFCPHYEKVSGDYGHPVYIVQEMPPQSPANIYYKV
modifications: biotinylated
notes: ephrinB2 cytoplasmic tail; Vector (his/Avi-tagged in pET15) and purification after Pfaff et al, 1998; The forward primer printed for the 4A construct reads KYRRR after the HindIII site, which may mark the start of the tail; also called ephrinB2 WT tail; ephrinB2 cytoplasmic tail; source: Escherichia coli (DE3), purified
B2: his/Avi-tagged cytoplasmic tail of ephrinB2 S325A (domain or fragment, UniProt P52799 251-333, looked up)
chain: B1 chain with S75A
modifications: biotinylated
notes: ephrinB2 cytoplasmic tail with S325A; source: Escherichia coli (DE3), purified
B3: his/Avi-tagged cytoplasmic tail of ephrinB2 N328A (domain or fragment, UniProt P52799 251-333, looked up)
chain: B1 chain with N78A
modifications: biotinylated
notes: ephrinB2 cytoplasmic tail with N328A; source: Escherichia coli (DE3), purified
B4: his/Avi-tagged cytoplasmic tail of ephrinB2 Y331A (domain or fragment, UniProt P52799 251-333, looked up)
chain: B1 chain with Y81A
modifications: biotinylated
notes: ephrinB2 cytoplasmic tail with Y331A; source: Escherichia coli (DE3), purified
B5: his/Avi-tagged cytoplasmic tail of ephrinB2 2A (domain or fragment, UniProt P52799 251-333, looked up)
chain: B1 chain with N78A, Y81A
modifications: biotinylated
notes: ephrinB2 cytoplasmic tail with N328A and Y331A; also called double point mutation (N328A and Y331A); source: Escherichia coli (DE3), purified

Target: T1, his-tagged human full-length kindlin2
Experiment: pull-down; in vitro binding assay: purified kindlin2 mixed with purified cytoplasmic tails immobilised on NeutrAvidin beads; Western blot with anti-kindlin2 antibody
Settings: both partners purified

Binding result, binds:
B1, B2, B3, B4, B5
